Article PMC3626704 (BMC Biochemistry, 2013)

T1: 6-Helix-Fd (HIV-1 gp41 (HXB2-like, printed sequence), stabilised)
T1 construct: also called post-fusion six-helix bundle mimic
T1 chain: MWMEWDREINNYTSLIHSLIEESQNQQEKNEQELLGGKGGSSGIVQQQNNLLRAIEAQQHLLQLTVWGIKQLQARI

B1: D5 scFv, purified monovalent (scFv, V domains shown)
VH: QVQLVQSGAEVRKPGASVKVSCKASGDTFSSYAISWVRQAPGQGLEWMGGIIPIFGTANYAQAFQGRVTITANESTSTAYMELSSLRSEDTAIYYCARDNPTLLGSDYWGAGTLVTVSS
VL: DIQMTQSPSTLSASIGDRVTITCRASEGIYHWLAWYQQKPGKAPKLLIYKASSLASGAPSRFSGSGSGTDFTLTISSLQPDDFATYYCQQYSNYPLTFGGGTKLEIK
B2: 25C10 bivalent scFv on phage (scFv, V domains shown)
VH: QVQLVQSGAEVRKPGASVKVSCKASGDTFSSYAISWVRQAPGQGLEWMGGIIPIFGTANYAQAFQGRVTITANESTSTAYMELSSLRSEDTAIYYCARDNPTLLGSDYWGAGTLVTVSS
VL: DIQMTQSPSTLSASIGDRVTITCRASENIYGNLAWYQQKPGKAPKLLISRASRLASGAPSRFSGSGSGTDFTLTISSLQPDDFATYYCQQRYTYPLTFGGGTKLEIK
B3: 25C10 scFv, purified monovalent (scFv, V domains shown)
VH: QVQLVQSGAEVRKPGASVKVSCKASGDTFSSYAISWVRQAPGQGLEWMGGIIPIFGTANYAQAFQGRVTITANESTSTAYMELSSLRSEDTAIYYCARDNPTLLGSDYWGAGTLVTVSS
VL: DIQMTQSPSTLSASIGDRVTITCRASENIYGNLAWYQQKPGKAPKLLISRASRLASGAPSRFSGSGSGTDFTLTISSLQPDDFATYYCQQRYTYPLTFGGGTKLEIK
B4: 25D8 bivalent scFv on phage (scFv, V domains shown)
VH: QVQLVQSGAEVRKPGASVKVSCKASGDTFSSYAISWVRQAPGQGLEWMGGIIPIFGTANYAQAFQGRVTITANESTSTAYMELSSLRSEDTAIYYCARDNPTLLGSDYWGAGTLVTVSS
VL: DIQMTQSPSTLSASIGDRVTITCRASEGISSNLAWYQQKPGKAPKLLISRAYRLASGAPSRFSGSGSGTDFTLTISSLQPDDFATYYCQQRATYPLTFGGGTKLEIK
B5: 25A10 bivalent scFv on phage (scFv, V domains shown)
VH: QVQLVQSGAEVRKPGASVKVSCKASGDTFSSYAISWVRQAPGQGLEWMGGIIPIFGTANYAQAFQGRVTITANESTSTAYMELSSLRSEDTAIYYCARDNPTLLGSDYWGAGTLVTVSS
VL: DIQMTQSPSTLSASIGDRVTITCRASESISHNLAWYQQKPGKAPKLLISNASRLASGAPSRFSGSGSGTDFTLTISSLQPDDFATYYCQQYSNYPLTFGGGTKLEIK
B6: 25A10 scFv, purified monovalent (scFv, V domains shown)
VH: QVQLVQSGAEVRKPGASVKVSCKASGDTFSSYAISWVRQAPGQGLEWMGGIIPIFGTANYAQAFQGRVTITANESTSTAYMELSSLRSEDTAIYYCARDNPTLLGSDYWGAGTLVTVSS
VL: DIQMTQSPSTLSASIGDRVTITCRASESISHNLAWYQQKPGKAPKLLISNASRLASGAPSRFSGSGSGTDFTLTISSLQPDDFATYYCQQYSNYPLTFGGGTKLEIK
B7: 25D9 bivalent scFv on phage (scFv, V domains shown)
VH: QVQLVQSGAEVRKPGASVKVSCKASGDTFSSYAISWVRQAPGQGLEWMGGIIPIFGTANYAQAFQGRVTITANESTSTAYMELSSLRSEDTAIYYCARDNPTLLGSDYWGAGTLVTVSS
VL: DIQMTQSPSTLSASIGDRVTITCRASEDILGRLAWYQQKPGKAPKLLIYRASRLASGAPSRFSGSGSGTDFTLTISSLQPDDFATYYCQQRANYPLTFGGGTKLEIK
B8: 25G8 bivalent scFv on phage (scFv, V domains shown)
VH: QVQLVQSGAEVRKPGASVKVSCKASGDTFSSYAISWVRQAPGQGLEWMGGIIPIFGTANYAQAFQGRVTITANESTSTAYMELSSLRSEDTAIYYCARDNPTLLGSDYWGAGTLVTVSS
VL: DIQMTQSPSTLSASIGDRVTITCRASESIGRSLAWYQQKPGKAPKLLIYRASRLASGAPSRFSGSGSGTDFTLTISSLQPDDFATYYCQQSSTTPLTFGGGTKLEIK
B9: 25C6 bivalent scFv on phage (scFv, V domains shown)
VH: QVQLVQSGAEVRKPGASVKVSCKASGDTFSSYAISWVRQAPGQGLEWMGGIIPIFGTANYAQAFQGRVTITANESTSTAYMELSSLRSEDTAIYYCARDNPTLLGSDYWGAGTLVTVSS
VL: DIQMTQSPSTLSASIGDRVTITCRASENISSRLAWYQQKPGKAPKLLISNAYHLASGAPSRFSGSGSGTDFTLTISSLQPDDFATYYCQQRSNYPHTFGGGTKLEIK
B10: 25C12 bivalent scFv on phage (scFv, V domains shown)
VH: QVQLVQSGAEVRKPGASVKVSCKASGDTFSSYAISWVRQAPGQGLEWMGGIIPIFGTANYAQAFQGRVTITANESTSTAYMELSSLRSEDTAIYYCARDNPTLLGSDYWGAGTLVTVSS
VL: DIQMTQSPSTLSASIGDRVTITCRASEDISSVLAWYQQKPGKAPKLLIYNASRLASGAPSRFSGSGSGTDFTLTISSLQPDDFATYYCQQRANNPHTFGGGTKLEIK
B11: 25D6 bivalent scFv on phage (scFv, V domains shown)
VH: QVQLVQSGAEVRKPGASVKVSCKASGDTFSSYAISWVRQAPGQGLEWMGGIIPIFGTANYAQAFQGRVTITANESTSTAYMELSSLRSEDTAIYYCARDNPTLLGSDYWGAGTLVTVSS
VL: DIQMTQSPSTLSASIGDRVTITCRASENIYSNLAWYQQKPGKAPKLLISSASRLASGAPSRFSGSGSGTDFTLTISSLQPDDFATYYCQQNSNNPHTFGGGTKLEIK
B12: 25D3 bivalent scFv on phage (scFv, V domains shown)
VH: QVQLVQSGAEVRKPGASVKVSCKASGDTFSSYAISWVRQAPGQGLEWMGGIIPIFGTANYAQAFQGRVTITANESTSTAYMELSSLRSEDTAIYYCARDNPTLLGSDYWGAGTLVTVSS
VL: DIQMTQSPSTLSASIGDRVTITCRASENIHRRLAWYQQKPGKAPKLLIYSAYSLASGAPSRFSGSGSGTDFTLTISSLQPDDFATYYCQQNSDYPHTFGGGTKLEIK
B13: 25F1 bivalent scFv on phage (scFv, V domains shown)
VH: QVQLVQSGAEVRKPGASVKVSCKASGDTFSSYAISWVRQAPGQGLEWMGGIIPIFGTANYAQAFQGRVTITANESTSTAYMELSSLRSEDTAIYYCARDNPTLLGSDYWGAGTLVTVSS
VL: DIQMTQSPSTLSASIGDRVTITCRASEGINNSLAWYQQKPGKAPKLLISRASRLASGAPSRFSGSGSGTDFTLTISSLQPDDFATYYCQQYSSTPHTFGGGTKLEIK
B14: 25B6 bivalent scFv on phage (scFv, V domains shown)
VH: QVQLVQSGAEVRKPGASVKVSCKASGDTFSSYAISWVRQAPGQGLEWMGGIIPIFGTANYAQAFQGRVTITANESTSTAYMELSSLRSEDTAIYYCARDNPTLLGSDYWGAGTLVTVSS
VL: DIQMTQSPSTLSASIGDRVTITCRASENIRSGLAWYQQKPGKAPKLLIYRASRLASGAPSRFSGSGSGTDFTLTISSLQPDDFATYYCQQYDDYPHTFGGGTKLEIK
B15: 25B6 scFv, purified monovalent (scFv, V domains shown)
VH: QVQLVQSGAEVRKPGASVKVSCKASGDTFSSYAISWVRQAPGQGLEWMGGIIPIFGTANYAQAFQGRVTITANESTSTAYMELSSLRSEDTAIYYCARDNPTLLGSDYWGAGTLVTVSS
VL: DIQMTQSPSTLSASIGDRVTITCRASENIRSGLAWYQQKPGKAPKLLIYRASRLASGAPSRFSGSGSGTDFTLTISSLQPDDFATYYCQQYDDYPHTFGGGTKLEIK
B16: 25F10 bivalent scFv on phage (scFv, V domains shown)
VH: QVQLVQSGAEVRKPGASVKVSCKASGDTFSSYAISWVRQAPGQGLEWMGGIIPIFGTANYAQAFQGRVTITANESTSTAYMELSSLRSEDTAIYYCARDNPTLLGSDYWGAGTLVTVSS
VL: DIQMTQSPSTLSASIGDRVTITCRASEGIHNRLAWYQQKPGKAPKLLISHASNLASGAPSRFSGSGSGTDFTLTISSLQPDDFATYYCQQYSNYPLTFGGGTKLEIK
B17: 25A12 bivalent scFv on phage (scFv, V domains shown)
VH: QVQLVQSGAEVRKPGASVKVSCKASGDTFSSYAISWVRQAPGQGLEWMGGIIPIFGTANYAQAFQGRVTITANESTSTAYMELSSLRSEDTAIYYCARDNPTLLGSDYWGAGTLVTVSS
VL: DIQMTQSPSTLSASIGDRVTITCRASEGIHRYLAWYQQKPGKAPKLLIYHASRLASGAPSRFSGSGSGTDFTLTISSLQPDDFATYYCQQRANYPYTFGGGTKLEIK

How the values were obtained:
6-Helix-Fd [1] = target: T1, 6-Helix-Fd; assay: ELISA; conditions: both partners purified
5-Helix [2] = target: T2, 5-Helix (HIV-1 group M subtype B, HXB2 (gp41 …, stabilised)); assay: ELISA; conditions: both partners purified
T2 construct: also called designed protein based on HIV-1 gp41

5-Helix [3] = target: T2, 5-Helix; assay: ELISA; conditions: one partner purified
6-Helix-Fd [4] = target: T1, 6-Helix-Fd; assay: ELISA; competitive phage ELISA, on-phage bivalent scFv: binding to immobilised 5-Helix inhibited by free 5-Helix or free 6-Helix-Fd (concentrations for the trimer); apparent; conditions: one partner purified
5-Helix [5] = target: T2, 5-Helix; assay: as above; conditions: one partner purified

| Binder | IC50 (6-Helix-Fd [1]) [nM] | IC50 (5-Helix [2]) [nM] | F_competitive (signal with 40 nM free 5-Helix / signal without) (5-Helix [3]) [fraction] | phage ELISA signal OD450 (5-Helix [3]) [OD450] | IC50 (6-Helix-Fd [4]) [nM] | IC50 (5-Helix [5]) [nM] |
| --- | --- | --- | --- | --- | --- | --- |
| B1 | 290 | 7.3 |  |  |  |  |
| B2 |  |  | 0.1 | 3.2 | 28 | 1.8 |
| B3 |  | 56 |  |  |  |  |
| B4 |  |  | 0.2 | 3.2 | ~3000 | 5.8 |
| B5 |  |  | 0.1 | 3.2 | 260 | 1.6 |
| B6 | ~500 | 5.4 |  |  |  |  |
| B7 |  |  | 0.2 | 3 | 230 | 1.7 |
| B8 |  |  | 0.1 | 2.1 | 300 | 7.2 |
| B9 |  |  | 0.2 | 1.8 | ~1000 | 32 |
| B10 |  |  | 0.3 | 2.2 | ~1000 | 100 |
| B11 |  |  | 0.1 | 1.6 | ~80 | 0.5 |
| B12 |  |  | 0.1 | 1.6 | 170 | 17 |
| B13 |  |  | 0.1 | 2.3 | 40 | 0.9 |
| B14 |  |  | 0.1 | 1.4 | 23 | 0.3 |
| B15 | 94 | 0.6 |  |  |  |  |
| B16 |  |  | 0.1 | 1.7 | 22 | 0.2 |
| B17 |  |  | 0.1 | 3.2 | 220 | 2.2 |
